These results are taken from US12576129B2, “Anthelmintic compositions and methods” (priority 2016, dated 2026).

In assay [1] the test system is Heligmosomoides polygyrus. Nature of the assay: Heligmosomoides polygyrus infection in STAT6-/- mice. The format is in vivo. The following applies: immunosuppressed mice lacking STAT6. The source says: Such a result is not surprising given that Cry5B directly intoxicates STH parasites in vitro. This is not true of all anthelmintics, e.g., DEC and in some cases ivermectin, for which it appears that involvement of the immune system is important for their mechanism of action. To confirm that the immune system is not essential for Cry5B action, STAT6−/− mice were infected with Heligmosomoides polygyrus STH parasites. STAT6 is required for the TH2 response required for normal expulsion of STH parasites.

The test system of assay [2] is Ancylostoma ceylanicum hookworms. Nature of the assay: A. ceylanicum hookworm curative experiment in Syrian hamsters (worm burdens, fecal egg counts). The assay is classed as in vivo. How it is done: Studies of Ancylostoma ceylanicum hookworms in Syrian hamsters were carried out as previously described (Hu, Y., et al. PLoS One, 8, e70702, 2013; Hu, Y., et al. Appl Environ Microbiol, 79, 5527-5532, 2013). Briefly, 4-6 week old male hamsters were infected with 150 infectious third staged larvae per os. On day 17 post-infection, an overnight collection of stool is taken and fecal egg counts (FECs) taken the next day. The hamsters are assigned to groups based on FEC so that there is roughly the same level of infection (same average egg per gram of feces or EPG) in all groups. On day 18 post-infection, the hamsters are weighed for dosing purposes and then gavaged with treatments as described in each experiment. On day 21 post-infection, another overnight collection of stool is taken for FECs. On day 22 post-infection, the animals were euthanized. Total hookworms in the small intestine were counted and EPGs calculated.
For all experiments involving cimetidine, hamsters or mice were pre-gavaged with 200 μL of an 8.75% cimetidine solution 15 minutes prior to therapeutic treatment (Stepek, G., et al. Parasitology, 134, 103-112, 2007).
For in vivo curative experiments, male hamsters were infected per os with 150 A. ceylanicum infectious larvae. On day 17 postinoculation (p.i.), a fecal sample was collected from each hamster, and the number of eggs was counted using the modified McMaster technique (13). On the basis of these fecal egg counts, the hamsters were segregated to ensure that the groups (control and treatment) had roughly equivalent infection levels. […] The hamsters were sacrificed on day 22 p.i., and intestinal parasite burdens were determined as described previously (14). The one-tailed Mann-Whitney test was performed to compare the two groups for significance in the experiment using a dose of 10 mg/kg of body weight (data were calculated and plotted using Prism 5 [GraphPad Software Inc., La Jolla, CA]). […]

For assay [3] the test system is unchanged. The following applies: hamsters; purified protein at 10 mg/kg; previously published data (ref 14); cited from earlier work.
Assay [4] has as its system Ancylostoma caninum. Nature of the assay: Ancylostoma caninum hookworm infection in dogs (fecal egg count, capsule endoscopy). The assay is classed as in vivo. How it is done:
Two beagles were inoculated per os with 1000 Ancylostoma caninum larvae. Forty one days post-infection, stool was collected for determination of fecal egg loads and the dog intestines were imaged using capsule endoscopy to count hookworms (Lee, A., et al. Int. J. Parasitol. 41, 1377-1383, 2011). One dose of Cry5B SCL (˜40 mg/kg) was given by gavage on each of day 42 and 44 post-infection. On day 49 post-infection a final fecal egg count was taken and capsule endoscopy repeated for final hookworm counts.

The mark [5] stands for this setting: Average of dogs (n = 2), 40 mg/kg.
[6] abbreviates: dogs (n = 2), post- vs pre-treatment, 40 mg/kg.

B1: Cry5B: Bacillus thuringiensis crystal (Cry) protein Cry5B, SEQ ID NO:1; purified full-length protein (protein, listed as Bacillus thuringiensis)
chain: MATINELYPVPYNVLAHPIKEVDDPYSWSNLLKGIQEGWEEWGKTGQKKLFEDHLTIAWNLYKTGKLDYFALTKASISLIGFIPGAEAAVPFINMFVDFVWPKLFGANTEGKDQQLFNAIMDAVNKMVDNKFLSYNLSTLNKTIEGLQGNLGLFQNAIQVAICQGSTPERVNFDQNCTPCNPNQPCKDDLDRVASRFDTANSQFTQHLPEFKNPWSDENSTQEFKRTSVELTLPMYTTVATLHLLLYEGYIEFMTKWNFHNEQYLNNLKVELQQLIHSYSETVRTSFLQFLPTLNNRSKSSVNAYNRYVRNMTVNCLDIAATWPTFDTHNYHQGGKLDLTRIILSDTAGPIEEYTTGDKTSGPEHSNITPNNILDTPSPTYQHSFVSVDSIVYSRKELQQLDIATYSTNNSNNCHPYGLRLSYTDGSRYDYGDNQPDFTTSNNNYCHNSYTAPITLVNARHLYNAKGSLQNVESLVVSTVNGGSGSCICDAWINYLRPPQTSKNESRPDQKINVLYPITETVNKGTGGNLGVISAYVPMELVPENVIGDVNADTKLPLTQLKGFPFEKYGSEYNNRGISLVREWINGNNAVKLSNSQSVGIQITNQTKQKYEIRCRYASKGDNNVYFNVDLSENPFRNSISFGSTESSVVGVQGENGKYILKSITTVEIPAGSFYVHITNQGSSDLFLDRIEFVPKIQFQFCDNNNLHCDCNNPVDTDCTFCCVCTSLTDCDCNNPRGLDCTLCCQVENQLPSFVTLTDLQNITTQVNALVASSEHDTLATDVSDYEIEEVVLKVDALSGEVFGKEKKALRKLVNHTKRLSKARNLLIGGNFDNLDAWYRGRNVVNVSDHELFKSDHVLLPPPTLYSSYMFQKVEESKLKANTRYTVSGFIAHAEDLEIVVSRYGQEVKKVVQVPYGEAFPLTSRGAICCPPRSTSNGKPADPHFFSYSIDVGTLDVEANPGIELGLRIVERTGMARVSNLEIREDRPLKKNELRNVQRAARNWRTAYDQERAEVTALIQPVLNQINALYENEDWNGAIRSGVSYHDLEAIVLPTLPKLNHWFMSDMLGEQGSILAQFQEALDRAYTQLEESTILHNGHFTTDAANWTIEGDAHHAILEDGRRVLRLPDWSSSVSQTIEIENFDPDKEYQLVFHAQGEGTVSLQHGEEGEYVETHPHKSANFTTSHRQGVTFETNKVTVEITSEDGEFLVDHIALVEAPLPTDDQSSDGNTTSNTNSNTSMNNNQ
modifications: source = /note="Bacillus thuringiensis pesticidal crystal (Cry)"
In the case of B1, the “efficacy against H. polygyrus” value in assay [1] was “effective”. Besides, the “% Parasite reduction” value in assay [2] (A. ceylanicum infections in hamsters, 10 mg/kg, This Example) is 93%. In addition, in assay [2] (hamsters), the “efficacy after pre-exposure to two doses of Cry5B prior to infection” value is listed as “not altered”. In assay [2] (hamsters pre-gavaged with cimetidine (and NaHCO3) before treatment), the “effect of pre-neutralization of stomach acid on efficacy” value was “improved”. In addition, the hookworm burden reduction in assay [3] is reported as 65%. Besides, the “Fecal Egg Count Pre-Treatment” value in assay [4] (Average of dogs (n = 2)) is given as 12581 EPG of Feces; in assay [4] (Dog 1, day 41 post-infection), 15750 EPG of Feces; in assay [4] (Dog 2, day 41 post-infection) it was 9412 EPG of Feces. Further, the “Hookworm Burden Pre-Treatment” value in assay [4] (Average of dogs (n = 2)) is reported as 70; in assay [4] (Dog 1, capsule endoscopy, day 41 post-infection) it was 84; in assay [4] (Dog 2, capsule endoscopy, day 41 post-infection), 56. Further, the “Fecal Egg Count Post-Treatment” value in assay [4] (setting [5]) is reported as 1081.5 EPG of Feces; in assay [4] (Dog 1, day 49 post-infection, ~40 mg/kg by gavage on days 42 and 44) it was 1590 EPG of Feces; in assay [4] (Dog 2, day 49 post-infection, ~40 mg/kg by gavage on days 42 and 44), 573 EPG of Feces. Besides, the “Hookworm Burden Post-Treatment” value was 3.5 in assay [4] (setting [5]); 4 in assay [4] (Dog 1, capsule endoscopy, day 49, ~40 mg/kg on days 42 and 44); 3 in assay [4] (Dog 2, capsule endoscopy, day 49, ~40 mg/kg on days 42 and 44). Besides, the “% Reduction of Fecal Egg Count” value in assay [4] (setting [6]) came to 91.4%. In assay [4] (setting [6]), the “% Reduction of Hookworm Burden” value came out at 95%. Besides, the “efficacy against A. caninum in dogs” value in assay [4] (~40 mg/kg by gavage on days 42 and 44 post-infection) was “highly effective”.
